We go through two proteins from ChEMBL document CHEMBL1123679, “5-Quinone derivatives of 2'-deoxyuridine 5'-phosphate: inhibition and inactivation of thymidylate synthase, antitumor cell, and antiviral studies” (J Med Chem, 1987).

Substrate in data set [1]: CC1=C(C)C(=O)C(c2cn([C@H]3C[C@H](O)[C@@H](COP(=O)(O)O)O3)c(=O)[nH]c2=O)=CC1=O
The settings on record: Lacticaseibacillus casei.

Substrate in data set [2]: CC1=C(c2cn([C@H]3C[C@H](O)[C@@H](COP(=O)(O)O)O3)c(=O)[nH]c2=O)C(=O)c2ccccc2C1=O
The settings on record: Lacticaseibacillus casei.

Substrate in data set [3]: CC1=C(C)C(=O)C(c2cn([C@H]3C[C@H](O)[C@@H](COP(=O)(O)O)O3)c(=O)[nH]c2=O)=C(C)C1=O
The settings on record: Lacticaseibacillus casei.

Substrate in data set [4]: COc1cc(-c2cn([C@H]3C[C@H](O)[C@@H](COP(=O)(O)O)O3)c(=O)[nH]c2=O)c(OC)c(C)c1C
The settings on record: Lacticaseibacillus casei.

Compound in data set [5]: O=C1C=CC(=O)C(c2cn([C@H]3C[C@H](O)[C@@H](COP(=O)(O)O)O3)c(=O)[nH]c2=O)=C1
As to the kind of experiment: (§1) Ability to inhibit the thymidylate synthase from Lactobacillus casei was determined and expressed as inhibition constant(Km). Conditions: Lacticaseibacillus casei.

Compound in data set [6]: COc1c(C)c(-c2cn([C@H]3C[C@H](O)[C@@H](COP(=O)(O)O)O3)c(=O)[nH]c2=O)c(OC)c2ccccc12
The description is as §1. Conditions: Lacticaseibacillus casei.

Compound in data set [7]: COc1c(C)c(C)c(OC)c(-c2cn([C@H]3C[C@H](O)[C@@H](COP(=O)(O)O)O3)c(=O)[nH]c2=O)c1C
Described as §1. The settings on record: Lacticaseibacillus casei.

Substrate in data set [8]: CC1=C(C)C(=O)C(c2cn([C@H]3C[C@H](O)[C@@H](COP(=O)(O)O)O3)c(=O)[nH]c2=O)=CC1=O
Conditions: L1210.

Substrate in data set [9]: CC1=C(c2cn([C@H]3C[C@H](O)[C@@H](COP(=O)(O)O)O3)c(=O)[nH]c2=O)C(=O)c2ccccc2C1=O
The settings on record: L1210.

Substrate in data set [10]: CC1=C(C)C(=O)C(c2cn([C@H]3C[C@H](O)[C@@H](COP(=O)(O)O)O3)c(=O)[nH]c2=O)=C(C)C1=O
The settings on record: L1210.

B1: Thymidylate synthase (Lactobacillus casei), P00469 (protein)
chain: MLEQPYLDLAKKVLDEGHFKPDRTHTGTYSIFGHQMRFDLSKGFPLLTTKKVPFGLIKSELLWFLHGDTNIRFLLQHRNHIWDEWAFEKWVKSDEYHGPDMTDFGHRSQKDPEFAAVYHEEMAKFDDRVLHDDAFAAKYGDLGLVYGSQWRAWHTSKGDTIDQLGDVIEQIKTHPYSRRLIVSAWNPEDVPTMALPPCHTLYQFYVNDGKLSLQLYQRSADIFLGVPFNIASYALLTHLVAHECGLEVGEFIHTFGDAHLYVNHLDQIKEQLSRTPRPAPTLQLNPDKHDIFDFDMKDIKLLNYDPYPAIKAPVAV
On to B1, for which the Km in data set [1] stood at 6.98 µM; in [2], 6.41 µM; in data set [3], 6.98 µM; in [4] it was 5.25 µM; in [5] it was 7.6 µM; in data set [6], 5.25 µM. Moreover, in [7], the Km amounted to 5.25 µM.

B2: Thymidylate synthase (Mus musculus), P07607 (protein)
chain: MLVVGSELQSDAQQLSAEAPRHGELQYLRQVEHILRCGFKKEDRTGTGTLSVFGMQARYSLRDEFPLLTTKRVFWKGVLEELLWFIKGSTNAKELSSKGVRIWDANGSRDFLDSLGFSARQEGDLGPVYGFQWRHFGAEYKDMDSDYSGQGVDQLQKVIDTIKTNPDDRRIIMCAWNPKDLPLMALPPCHALCQFYVVNGELSCQLYQRSGDMGLGVPFNIASYALLTYMIAHITGLQPGDFVHTLGDAHIYLNHIEPLKIQLQREPRPFPKLKILRKVETIDDFKVEDFQIEGYNPHPTIKMEMAV
As to B2, the Km in data set [8] stood at 2.46 µM; in [9], 0.6 µM; in data set [10], 0.57 µM.

In general, Km refers to the substrate concentration at which the rate is half of its maximum.
